{
  "source": "patent US20060234208A1",
  "about": "“Novel mechanism for hiv-1 entry into host cells and peptides inhibiting this mechanism” (priority 2002, published 2006)",
  "key": {"[1]": {"test_system": "TAT+/gp120-LV entry into C8166 cells", "assay": "TAT+/gp120-LV entry into C8166 cells after co-culture with U937/TAT cells (Examples IV and V)", "format": "cell-based, HIV-1", "conditions": "4 h co-culture with U937/TAT cells; without protease inhibitors", "procedure": "(§1) Transduction with HIV-1 -derived lentivirus. Vector stocks were prepared by transient co-transfection of 293T cells with the following combinations of plasmids: pRRL.hPGK.GFP.SIN-18+pCMV.DR8.2+pMD.G (Naldini et al. (1996), supra) (VSV-G-LV) or pEnvHXB (Huang et al., J. Virol. 72 (1998), 8952-8960) (TAT+/gp120-LV); pRRL.hPGK.GFP.SIN-18+pCMV.DR8.74 +pRSV-Rev ((Dull et al. (1998), supra)+pEnvHXB (TAT/gp120 -LV). Vector concentration was determined by HIV-1 p24 Core profile ELISA following the manufacturer's instructions. The entry experiments were conducted on 10^5 cells per well of a 48-well plate in the presence of 8 μg/ml polybrene. The number of GFP-positive cells was analysed by FACS."}, "HIV-1 Ba-L": {"test_system": "HIV-1 Ba-L", "assay": "Infection of PBMC with HIV-1 strain Ba-L (Example VI)", "format": "cell-based", "conditions": "PHA-stimulated PBMCs, 2 h infection; versus 100 μM control peptide; SEQ 4 and 44: 100-50-10 μM, SEQ 127: 1 μM-100-10 nM", "procedure": "This example is illustrated in FIG. 12. […] 4 (CSFINT), 44 (RDKVKK) and the complete gp120 region SEQ ID NO.127 (CSFNITTEIRDKVKK), where the entry experiment is performed with two strains of HIV-1 on peripheral blood cells (PBMCs) derived from healthy donors. In particular, strain III B uses CXCR4 as a co-receptor (X4) and Ba-L uses CCR5 (R5). […] In the graphs the percent inhibition of infection due to the peptides is shown, as compared to infection in the presence of 100 μM of a control peptide. PHA-stimulated PBMCs have been incubated with the peptides and immediately infected for 2 h at 37° C. This incubation time is sufficient to evaluate virus entry, by detecting the presence of early viral transcripts into the cytoplasm of infected cells. The peptide concentrations are as follows: SEQ ID NO.4 and 44: 100-50-10 μM; SEQ ID NO. 127: 1 μM-100-10 nM. In FIG. 12A is represented the effect of the peptides on the basal infection of both viral strains, in FIG. 1 2B the effect of the peptides on the infection following incubation with rTAT7 nM. A peptide-dependent inhibition of the basal infection by both HIV-1 strains is present already in the basal infection, reflecting the presence of TAT in the viral supernatants. In particular, these peptides are more efficient in reducing the basal infection by HIV-1 Ba-L than III B, reaching an inhibition from about 40% (SEQ ID NO. 44 and 127) to 70% (SEQ ID NO. 4). After cell incubation with 7 nM rTAT, the peptides have an enhanced efficacy in inhibiting the infection, and all of them show a dose-response effect, with similar outcomes on infections by both viral strains, confirming that their activity is related to the amount of membrane-bound TAT.\nCell cultures. U937 and C8166 cells were cultured in RPMI -1640 medium supplemented with 10% heat inactivated FCS; Phoenix cells were cultured in DMEM supplemented with 10% FCS; 293T cells were cultured in Iscove's medium supplemented with 10% FCS. […]\nInfection with wild type HIV-1. […] Amplified DNA was analyzed by Southern blot hybridization with a ^32P-labeled probe, and quantified by densitometry. […]"}, "[2]": {"biological_target": "TAT present in the viral supernatant of HIV-1 Ba-L (HIV-1 strain Ba-L)", "assay": "cell-based or functional assay"}, "[3]": {"biological_target": "recombinant TAT86 III B (rTAT) (HIV-1 strain III B) (UniProt P04608)"}, "recombinant TAT protein": {"biological_target": "T1, recombinant TAT protein (Human immunodeficiency virus type 1 group M subtype B, UniProt P69697, G61N/P58A/P59H/S77P/V67A)", "T1 construct": "TAT86 (full-length); purchased The Centralized facility for AIDS Reagents, National Institute for Biological Standards and Controls (donor Immunodiagnostic)", "assay": "Binding of selected phage to rTAT-coated microwells", "parameters": "species or system HIV-1", "conditions": "single phage clones; BSA and insertless phage FdTet as negative controls", "excerpt": "For this assay, we have tested single phage clones for binding rTAT-coated microwells, using an unrelated protein, the Bovine Serum Albumin (BSA), as a negative control. The result is shown in the graph, where ‘Transducing Units’ is a parameter indicating the number of bound phage. Binding of the phage to an insertless phage, FdTet, is shown as a negative control."}, "[4]": {"test_system": "TAT+/gp120-LV entry into C8166 cells", "assay": "Effect of rTAT pre-incubation on TAT+/gp120-LV entry into C8166 cells", "format": "cell-based, HIV-1", "conditions": "C8166 cells pre-incubated with rTAT for 15 min", "procedure": "This effect is reverted if the cells are pre-treated with Heparanase Ill. […] Again, this effect is reverted by pre-treating the cells with Heparanase IlI (FIG. 3B). To investigate the specificity of this effect, we have used lentiviral vectors pseudotyped with a different envelope, i.e. Vescicular Stomatitis Virus-G (VSV-G-LV), to transduce C8166 cells after co-culture with U937/TAT cells for different incubation times, or with the different U937/TAT clones for 2 h. […] Therefore, the increase in cell entry is strictly dependent not only on surface-bound TAT, but also on the presence of gp120. […]\nas §1"}, "[5]": {"test_system": "TAT/gp120-LV entry into C8166 cells", "assay": "Effect of GST-TAT variants on TAT-/gp120-LV entry into C8166 cells", "format": "cell-based, HIV-1", "conditions": "C8166 cells incubated with 7 μM GST-TAT variant for 15 min; compared to wild-type TAT86", "procedure": "as §1"}, "gp120": {"biological_target": "gp120 (Human immunodeficiency virus type 1 group M subtype B, UniProt P03375)", "conditions": "GST-fusion TAT HXB2 variants", "excerpt": "The following TATHXB2 variants were produced as GST-fusion proteins as described (Mitola, S. et al. Identification of specific molecular structures of human immunodeficiency virus type 1 TAT relevant for its biological effects on vascular endothelial cells. J Virol 74, 344-53 (2000): TAT86 (full-length), TAT72 (product of TAT first exon), TATBasMut (with the mutations R-49,52,53,55,56,57-A), TATCysMut (with the mutations C-22,25,27-A."}},
  "data": [
    {"molecule": "RDKVKK [SEQ ID NO. 44]", "values": [
      {"measurement": "blocking of virus entry at a concentration lower than 100 μM", "setting": "[1]", "result": "inefficient"},
      {"measurement": "percent inhibition of basal infection", "setting": "HIV-1 Ba-L", "result": "about 40%"}
    ]},
    {"molecule": "soluble peptide SEQ ID NO. 44 (RDKVKK)", "values": [
      {"measurement": "percent inhibition of basal infection of PBMCs by HIV-1 Ba-L", "setting": "[2]", "result": 40, "unit": "%"}
    ]},
    {"molecule": "recombinant gp120 III B protein", "values": [
      {"measurement": "Kd", "setting": "[3]", "result": 8, "unit": "nM"}
    ]},
    {"molecule": "CPDRKKKVVMVC [SEQ ID NO.3, phage insert selected from CX10C Phage Display library, tested as phage]", "values": [
      {"measurement": "phage binding to rTAT-coated microwells", "setting": "recombinant TAT protein", "result": "specifically bind recombinant TAT protein"}
    ]},
    {"molecule": "CSFNITTEIRDKVKK [SEQ ID NO. 127, Synthetic peptide corresponding to the selected region of gp120]", "values": [
      {"measurement": "percent inhibition of basal infection", "setting": "HIV-1 Ba-L", "result": "about 40%"}
    ]},
    {"molecule": "CTVECYFNCTPTC [SEQ ID NO.2, phage insert selected from CX3CX3CX3C Phage Display library, tested as phage]", "values": [
      {"measurement": "phage binding to rTAT-coated microwells", "setting": "recombinant TAT protein", "result": "specifically bind recombinant TAT protein"}
    ]},
    {"molecule": "CSFNIT [SEQ ID NO. 4]", "values": [
      {"measurement": "blocking of virus entry at a concentration lower than 100 μM", "setting": "[1]", "result": "inefficient"},
      {"measurement": "percent inhibition of basal infection", "setting": "HIV-1 Ba-L", "result": "~70", "unit": "%"}
    ]},
    {"molecule": "soluble peptide SEQ ID NO. 4 (CSFNIT)", "values": [
      {"measurement": "percent inhibition of basal infection of PBMCs by HIV-1 Ba-L", "setting": "[2]", "result": 70, "unit": "%"}
    ]},
    {"molecule": "rTAT: recombinant TAT (TAT86 III B) protein (protein) MIPVDPRLEPWKHPGSQPKTACTNCYCKKCCFHCQVCFITKALGISYGRKKRRQRRRAHQNSQTHQASLSKQPTSQPRGDPTGPKE", "values": [
      {"measurement": "increase of TAT+/gp120-LV entry", "setting": "[4]", "result": "dose-response effect in increasing TAT+/gp120-LV entry"}
    ]},
    {"molecule": "TATCysMut: GST-fusion TAT HXB2 variant with the mutations C-22,25,27-A (protein, UniProt P04608 1-86, looked up, variant C22A C25A C27A, GST fusion, GST-fusion TAT HXB2 variant with the mutations C-22,25,27-A) Protein Tat: MEPVDPRLEPWKHPGSQPKTAATNAYAKKCCFHCQVCFITKALGISYGRKKRRQRRRAHQNSQTHQASLSKQPTSQPRGDPTGPKE", "values": [
      {"measurement": "enhancement of TAT/gp120-LV entry into the cells", "setting": "[5]", "result": "could enhance vector entry"}
    ]},
    {"molecule": "TATBasMut: GST-fusion TAT HXB2 variant with the mutations R-49,52,53,55,56,57-A (protein, UniProt P04608 1-86, looked up, variant R49A R52A R53A R55A R56A R57A, GST fusion, GST-fusion TAT HXB2 variant with the mutations R-49,52,53,55,56,57-A) Protein Tat: MEPVDPRLEPWKHPGSQPKTACTNCYCKKCCFHCQVCFITKALGISYGAKKAAQAAAAHQNSQTHQASLSKQPTSQPRGDPTGPKE", "values": [
      {"measurement": "enhancement of TAT/gp120-LV entry into the cells", "setting": "[5]", "result": "ineffective in enhancing virus entry"},
      {"measurement": "binding to rgp120-coated microwells", "setting": "gp120", "result": "retaining the ability to bind gp120"}
    ]}
  ]
}
